In patent US20210206873A1:

Assays:
[1] = target: human Toll-like Receptor 9 (TLR9) (human) (UniProt Q9NR96); test: intracellular flow, pDCs; PE isotype control, no block
[2] = target: human Toll-like Receptor 9 (TLR9) (human) (UniProt Q9NR96); test: intracellular flow, B cells; PE isotype control, no block

UniProt Q9NR96, sequence (Q9NR96 26-1032): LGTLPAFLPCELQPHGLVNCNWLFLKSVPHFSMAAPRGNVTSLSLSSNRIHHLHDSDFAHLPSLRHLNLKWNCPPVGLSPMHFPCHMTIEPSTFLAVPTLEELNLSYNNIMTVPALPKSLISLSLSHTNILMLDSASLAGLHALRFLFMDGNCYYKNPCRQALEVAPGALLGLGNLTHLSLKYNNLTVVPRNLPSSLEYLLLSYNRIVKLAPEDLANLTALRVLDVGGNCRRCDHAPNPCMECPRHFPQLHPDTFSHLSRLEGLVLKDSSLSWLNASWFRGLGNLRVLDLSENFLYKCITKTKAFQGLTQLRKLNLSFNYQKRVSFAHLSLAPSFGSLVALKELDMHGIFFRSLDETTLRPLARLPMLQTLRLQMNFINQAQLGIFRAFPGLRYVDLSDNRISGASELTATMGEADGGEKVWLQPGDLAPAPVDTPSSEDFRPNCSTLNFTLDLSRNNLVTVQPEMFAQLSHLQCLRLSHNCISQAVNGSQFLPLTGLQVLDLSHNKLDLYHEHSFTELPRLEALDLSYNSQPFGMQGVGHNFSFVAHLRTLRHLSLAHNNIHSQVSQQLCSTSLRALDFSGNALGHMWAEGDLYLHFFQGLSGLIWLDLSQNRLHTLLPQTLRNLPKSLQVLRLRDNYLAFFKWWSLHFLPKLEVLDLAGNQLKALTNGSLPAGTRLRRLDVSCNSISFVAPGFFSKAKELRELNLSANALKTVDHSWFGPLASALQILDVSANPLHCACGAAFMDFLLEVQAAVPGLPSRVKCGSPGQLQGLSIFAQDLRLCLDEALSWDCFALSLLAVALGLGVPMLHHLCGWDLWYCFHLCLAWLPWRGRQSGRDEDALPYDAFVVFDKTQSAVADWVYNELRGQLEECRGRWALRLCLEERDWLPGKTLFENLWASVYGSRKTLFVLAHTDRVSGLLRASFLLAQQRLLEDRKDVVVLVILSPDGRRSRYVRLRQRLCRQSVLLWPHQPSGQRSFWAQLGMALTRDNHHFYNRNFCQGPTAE

| Substance | MFI [1] | MFI [2] |
| --- | --- | --- |
| Rat IgG2a isotype control (antibody) | 490 | 142 |
| Rat IgG2b isotype control (antibody) | 138 | 52 |
